The record followed here is IntAct's records for PubMed 21768349.

B1: DNA repair protein XRCC4 (Homo sapiens), Q13426 (parent)
chain: MERKISRIHLVSEPSITHFLQVSWEKTLESGFVITLTDGHSAWTGTVSESEISQEADDMAMEKGKYVGELRKALLSGAGPADVYTFNFSKESCYFFFEKNLKDVSFRLGSFNLEKVENPAEVIRELICYCLDTIAENQAKNEHLQKENERLLRDWNDVQGRFEKCVSAKEALETDLYKRFILVLNEKKTKIRSLHNKLLNAAQEREKDIKQEGETAICSEMTADRDPVYDESTDEESENQTDLSGLASAAVSKDDSIISSLDVTDIAPSRKRRQRMQRNLGTEPKMAPQENQLQEKENSRPDSSLPETSKKEHISAENMSLETLRNSSPEDLFDEI

This experiment covers variants of B1. Conditions: with NHEJ1, Q9H9Q4-1.
Sequence of NHEJ1, Q9H9Q4-1 (Q9H9Q4 whole entry): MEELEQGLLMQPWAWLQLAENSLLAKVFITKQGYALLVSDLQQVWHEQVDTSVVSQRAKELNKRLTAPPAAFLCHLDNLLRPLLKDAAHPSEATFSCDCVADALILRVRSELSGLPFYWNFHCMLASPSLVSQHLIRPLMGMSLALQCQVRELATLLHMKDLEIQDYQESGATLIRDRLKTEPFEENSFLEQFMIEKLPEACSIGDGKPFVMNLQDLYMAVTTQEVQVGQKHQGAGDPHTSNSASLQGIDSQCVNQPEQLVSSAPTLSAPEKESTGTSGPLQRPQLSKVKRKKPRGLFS
In the case of K65E, the “effect of a mutation on the interaction” value is recorded as “decreasing interaction strength”.

As for E55R, the “effect of a mutation on the interaction” value is recorded as “disrupting interaction strength”. As for D58R, the “effect of a mutation on the interaction” value is recorded as “disrupting interaction strength”. For M61R the value was “disrupting interaction strength”. Next, F106E: “disrupting interaction strength”; F106Y: “decreasing interaction strength”; F106A: “decreasing interaction strength”.
